We go through 1 molecule from paper PMC5113203.

In the data set the target is human lysyl-tRNA synthetase anticodon-binding domain (hLysRS ACB) (Homo sapiens, UniProt Q15046 91-216). Put plainly: fluorescence anisotropy. (In general: Fluorescence polarisation rises when a labelled molecule tumbles more slowly, as on binding a larger partner.)
Sequence of human lysyl-tRNA synthetase anticodon-binding domain (hLysRS ACB) (Q15046 91-216): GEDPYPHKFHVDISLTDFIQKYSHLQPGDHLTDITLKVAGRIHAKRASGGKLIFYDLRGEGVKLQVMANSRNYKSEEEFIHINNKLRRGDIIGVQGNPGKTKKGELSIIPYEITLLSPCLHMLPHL

As to CCCCCCCCC (ssRNA) [C9], the binding signal is ~100 fold lower affinity than U9.
